Data on 141 substances can be found in the supplement of paper PMC12042874.

± gives the uncertainty stated by the source.

The nature of the series: amyloid nucleation score (Sup35N fusion, yeast selection) (log enrichment); library NNK1; higher = more nucleation; inactive = no reads after selection. A digest of the protocol:
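Psi-negative yeast expressed Sup35N fused to peptides of 20 random codons. They were induced 24 hours with 100 μM copper sulfate, grown 7 days at 30°C without adenine and uracil, and their plasmid inserts from input and output were Illumina-sequenced. The nucleation score is the DiMSum log enrichment of output over input reads, centred on the mode score of non-aggregating sequences. Sequences with under 100 input reads were excluded.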
Turning to KVALESSRAV, the amyloid nucleation score is 0.036 ± 0.88.

Substance DLFLRYSLAGYYAMESPADS gave an amyloid nucleation score of 0.331 ± 0.33.

For LNLVRLYVTSKCSLDATSVI, the amyloid nucleation score was -0.444 ± 1.2.

Turning to GTDYIKVSASPRSFMYDSSV, the amyloid nucleation score came to 1.88 ± 0.62.

The substance IFKDLCLTTSGLDIDPNFND returned an amyloid nucleation score of 0.762 ± 0.51.

In turn, SAPFMNGLCTLSRVREISAH yielded an amyloid nucleation score of 0.222 ± 0.59.

Substance AHRPGMFFRNYVVGDLS registered an amyloid nucleation score of -0.026 ± 0.48.

In turn, LVFTCVGCWYQGKLWNE gave an amyloid nucleation score of 4.25 ± 0.12.

With NTAFLAVLSNALMVGMYSLL, the amyloid nucleation score is 0.606 ± 0.58.

Regarding RNQRSSMWVGNRCYGGRCVW, the amyloid nucleation score was found to be 0.898 ± 0.93.

The substance FTSSVIILCIFYWNGLVRIF yielded an amyloid nucleation score of -0.505 ± 1.5.

GRVQGNFLINRVCRWWGVAG: the amyloid nucleation score was found to be 0.182 ± 0.56.

With WNPYPTCSYSPFATSGDSAF, the amyloid nucleation score is -1.13 ± 0.76.

KSSGALDMFSDTNMV displayed an amyloid nucleation score of -0.894 ± 0.39.

The substance WLESRQPAEESVVVWNERVG gave an amyloid nucleation score of -0.831 ± 1.3.

With VFMIVCK, the amyloid nucleation score entry was “inactive”.

As for NGWNYM, the amyloid nucleation score was -0.349 ± 1.

Consider MFYVPIGPLSRCWRTALGFI, for which the amyloid nucleation score was -0.786 ± 0.85.

Turning to VHGYL, the amyloid nucleation score was determined as 0.067 ± 0.59.

RHTETSLASSARKPALNPT: the amyloid nucleation score is 0.197 ± 0.41.

As for ALLCFLWCRMYGTFSTSCVL, the amyloid nucleation score turned out to be 0.315 ± 0.85.

LWYCTSSNNCDCSAAIIVNT had an amyloid nucleation score of 4.19 ± 0.1.

Consider KVLNILYWGRTDVG, for which the amyloid nucleation score was found to be 1.41 ± 0.33.

Substance DRSRVLSSGETGYDIEVGQS registered an amyloid nucleation score of -0.033 ± 0.45.

WWYSDMWMVSC had an amyloid nucleation score of 2.34 ± 0.46.

The substance ALDVARDKDVILYEFQLELR had an amyloid nucleation score of 0.366 ± 0.72.

For FSKTAGEVAYSLTESTDVRS, the amyloid nucleation score was -1.26 ± 0.88.

NGTGLFNNLWVGSLRLRVTR displayed an amyloid nucleation score of 0.192 ± 0.56.

As to IFAPAIMSFYSLVIQWPYPG, the amyloid nucleation score is 1.99 ± 0.45.

The substance WPWCQYTYRFLSIMCKVFL came in with an amyloid nucleation score of 0.288 ± 0.65.

YTPMTTSWLLPSLEINI: the amyloid nucleation score is -0.069 ± 0.71.

VDLNWRHVDCCYFRFTTQDH displayed an amyloid nucleation score of 6.04 ± 0.074.

As to QRKYNDLFWLTSPFSQSMWM, the amyloid nucleation score is 0.997 ± 1.1.

The substance SMFRVYYSGGQLQ registered an amyloid nucleation score of 4.75 ± 0.058.

Substance FWLCRYTIGSRLLFVVQTST had an amyloid nucleation score of 0.986 ± 0.65.

With MMSPLKR, the amyloid nucleation score result was “inactive”.

With HHPYFSAMM, the amyloid nucleation score turned out to be 0.22 ± 0.54.

With SLVLVYGFWELYLW, the amyloid nucleation score worked out at 0.689 ± 0.84.

Turning to IVNRHEL, the amyloid nucleation score was found to be 0.63 ± 0.9.

As to WSVDIGLRGLIMRMKYCEFR, the amyloid nucleation score was -1.01 ± 0.54.

Consider RCYHWVDLVCVRVGTRACFL, for which the amyloid nucleation score worked out at 0.877 ± 1.1.

Take LLAMFKFDNPHILFCSSILL: the amyloid nucleation score stood at 5.62 ± 0.078.

In turn, LQKRANNRRC displayed an amyloid nucleation score of -0.372 ± 0.5.

Consider LNWVLFADLLWPR, for which the amyloid nucleation score came to 0.212 ± 0.57.

MIMTW returned an amyloid nucleation score of -0.418 ± 0.48.

GYCTPNDPVIFWDFRVMTGS came in with an amyloid nucleation score of -0.544 ± 0.3.

For KYSLNM, the amyloid nucleation score was -0.872 ± 1.4.

On to NSRGAQVCDICSIRMFNCCP, for which the amyloid nucleation score came out at 7.149 ± 0.048.

On to GGRLNQHLRSNNTGTHHPGY, for which the amyloid nucleation score is -0.533 ± 0.31.

SLVTDCYVPGFLYAMVIHAG registered an amyloid nucleation score of 1.01 ± 0.45.

Turning to SKFNAIMNCDVIKRSLNCIN, the amyloid nucleation score is 0.022 ± 0.3.

LFMNCLILRMFTCAFHNSSE yielded an amyloid nucleation score of 6.39 ± 0.078.

Consider TFRFSGYSLNISFKNCEHYV, for which the amyloid nucleation score result was “inactive”.

DHGFLGE returned an amyloid nucleation score of -0.172 ± 0.76.

The substance VSEIN displayed an amyloid nucleation score of 2.23 ± 0.57.

For TAQMKDFSLRRNVGFVGSRW, the amyloid nucleation score entry is “inactive”.

Regarding PYLVVVTHMAMASHWDLLLP, the amyloid nucleation score stood at 0.25 ± 0.41.

Consider DLLFAIMMS, for which the amyloid nucleation score is -0.631 ± 1.2.

In turn, PDCRSYLTIF came in with an amyloid nucleation score of 0.486 ± 0.31.

In turn, IGILMVACRLHNVSLYLCSG had an amyloid nucleation score of -0.514 ± 0.96.

Regarding RFRFMLVFSNLSLL, the amyloid nucleation score is -0.022 ± 0.53.

STPNRLGPMPSWVGSTEAVV displayed an amyloid nucleation score of -0.474 ± 1.1.

As to AEHLICLGYGQRWGNYTGLP, the amyloid nucleation score was determined as 0.164 ± 0.62.

With NDRTGCVVGLHCEMNI, the amyloid nucleation score amounted to 5.961 ± 0.045.

Substance AVWSRRTCWGLRKQSGVVLT yielded an amyloid nucleation score of 0.036 ± 0.32.

The substance SYCLLIDLLLHSHVGLYSPM came in with an amyloid nucleation score of 0.519 ± 0.33.

As to FDAAIVLCSDVSIKGCLSRN, the amyloid nucleation score is 1.27 ± 0.27.

LDIVWVDSVIVISLMMLTYC showed an amyloid nucleation score of 0.199 ± 0.39.

NLLVCGVLRNCVSGTMF: the amyloid nucleation score was 0.312 ± 1.2.

Take NCNKSFNLLECGSFGTVGPM: the amyloid nucleation score was -0.324 ± 0.6.

KTFVPWISCATSIEVFYVAS registered an amyloid nucleation score of 1 ± 0.54.

In the case of ICVMSPGMESCGLVFGAWYT, the amyloid nucleation score is 0.61 ± 0.56.

FGHGV came in with an amyloid nucleation score of -0.626 ± 1.6.

The substance WGRRLSR yielded an amyloid nucleation score of 0.122 ± 0.5.

As to KVFISCYLWYA, the amyloid nucleation score amounted to 3.8 ± 0.072.

The substance SGGNLFRVMRWSMHFVSVRL yielded an amyloid nucleation score of -0.355 ± 0.33.

Substance LCPGNMLLLITDQYSNWEEI gave an amyloid nucleation score of 0.068 ± 0.3.

The substance WISYVQNTIYRFAFEESCLG yielded an amyloid nucleation score of 1.31 ± 0.43.

In the case of VLLSGDIRCDTSVSVTGLSH, the amyloid nucleation score was -0.061 ± 0.3.

The substance YSVFALRINLFAYTIPNSVL returned an amyloid nucleation score of -0.34 ± 0.24.

Consider YSIPNDLNPSCKSHLMPRGH, for which the amyloid nucleation score stood at 1.23 ± 0.41.

With TFAFISLDMVWLASAH, the amyloid nucleation score is -0.051 ± 0.26.

FWVQNMVGNFFNYYFDRGNQ showed an amyloid nucleation score of 7.791 ± 0.045.

In turn, RDLPFVTSSLCCSNTSGCMF gave an amyloid nucleation score of 0.429 ± 0.53.

WMYTMTGFEVNRTVNFYWTI returned an amyloid nucleation score of -0.095 ± 0.29.

Consider YWHDVI, for which the amyloid nucleation score worked out at 0.104 ± 1.

As for MWLQHYWTHQAY, the amyloid nucleation score is 0.59 ± 0.88.

In the case of ETLAFVLRFRNREDFCGGMV, the amyloid nucleation score turned out to be 1.01 ± 0.64.

As to AVSMWLPNDLAMIRSYIGYY, the amyloid nucleation score is -0.475 ± 0.52.

Consider KACDRFNLTYKTVSVRMGDC, for which the amyloid nucleation score came out at 0.39 ± 0.28.

In turn, RTICKVIFVSEVKSLFWNMS registered an amyloid nucleation score of 1.87 ± 0.41.

On to KSYNWDYGHLRVNYGGHMMI, for which the amyloid nucleation score is -0.544 ± 1.4.

As for TFCRLISGPKIRL, the amyloid nucleation score is -0.058 ± 0.42.

As to FYQLYLINSTCHGRSRYILS, the amyloid nucleation score came out at 0.155 ± 0.51.

In the case of KMKSEDT, the amyloid nucleation score came to 1.07 ± 0.25.

As to CMLDGALLLILVVFTIPCLN, the amyloid nucleation score was determined as 0.909 ± 0.6.

GSHYP came in with an amyloid nucleation score of 0.586 ± 0.56.

With APVFYIPIMFSQLFGLAQIY, the amyloid nucleation score amounted to 6.935 ± 0.06.

Regarding RYMSHGIGGTPV, the amyloid nucleation score is 0.142 ± 0.69.

Consider WRYRSRCMGGVVDRLLCDVW, for which the amyloid nucleation score was determined as 3.33 ± 0.076.

SSCNRRSHKP had an amyloid nucleation score of -0.471 ± 0.54.

As to VRHSAIRGLHWSGRILRCGV, the amyloid nucleation score was 1.01 ± 1.1.

As to FPYGSVIVVFVDFWYRLSSV, the amyloid nucleation score was -0.343 ± 0.34.

PMVTSSCFRCTLLCSQFWQF had an amyloid nucleation score of 0.444 ± 0.26.

VSGRVGKNAGITGM came in with an amyloid nucleation score of 0.813 ± 1.1.

Regarding HCPKAVGINEWPEMRFYVNL, the amyloid nucleation score is -0.05 ± 0.96.

MLLSFLYLV showed an amyloid nucleation score of 5.26 ± 0.049.

Consider MPDYVSFTSRMPLRLKLLLS, for which the amyloid nucleation score result was “inactive”.

Take YFGVFCQRMMVTALSPKNPT: the amyloid nucleation score is -0.369 ± 0.32.

RTPFNVDPKPTDPRNTRCST: the amyloid nucleation score worked out at 0.822 ± 0.93.

In turn, NLKSSYSAIPLFFIWCGTSV displayed an amyloid nucleation score of 0.114 ± 0.31.

As to TWAVSNLSRV, the amyloid nucleation score was -1.61 ± 0.59.

The substance KGLGRF gave an amyloid nucleation score of -0.788 ± 0.74.

With TARWAKPVADNGCVNNTFLW, the amyloid nucleation score was determined as 2.15 ± 0.27.

The substance FYGEGNFRGKTYVFTVPVVK had an amyloid nucleation score of -1.21 ± 2.4.

As to RSSWQMSPNMLLTNLNCCSS, the amyloid nucleation score was 6.367 ± 0.047.

ARHKSENWNYAVDLLSLILS: the amyloid nucleation score was 1.59 ± 0.41.

In the case of LFYSNMIVTVSRSVVRMRGA, the amyloid nucleation score worked out at 0.659 ± 0.79.

IVDSHVSIATYRLEELRRTL: the amyloid nucleation score is 2.11 ± 0.27.

As for SSWLC, the amyloid nucleation score was 1.4 ± 0.47.

The substance LKELYG registered an amyloid nucleation score of 0.303 ± 0.65.

Consider TGRVFLLYAAQ, for which the amyloid nucleation score is -0.368 ± 0.88.

Consider RVAPKGNRARDHVDSSSECS, for which the amyloid nucleation score is 2.14 ± 0.18.

In turn, SGQPMIPGTCDNWNWRDYFT registered an amyloid nucleation score of 6.04 ± 0.09.

Substance ESLRDRARWGNCMQILICSL displayed an amyloid nucleation score of -0.055 ± 0.55.

In turn, LYRWCGPCYLIWGVSWS displayed an amyloid nucleation score of -0.199 ± 0.45.

In turn, FLNNTGAQSKLFLDVSVRQG registered an amyloid nucleation score of -0.065 ± 0.86.

In turn, FRRMVTVNEAWHHRKAGSAN yielded an amyloid nucleation score of 1.47 ± 0.65.

In the case of VRTFWCYCTWPASRYR, the amyloid nucleation score was -0.001 ± 0.51.

WNDWSYHCNF showed an amyloid nucleation score of -0.11 ± 0.27.

In turn, NLHNRTCWCMYLFDTSWS displayed an amyloid nucleation score of 0 ± 0.29.

RSLPNPL yielded an amyloid nucleation score of -0.29 ± 0.42.

In the case of FVGEN, the amyloid nucleation score was determined as 0.281 ± 0.52.

The substance LEDNMEFDFKSRKDSNLCNG registered an amyloid nucleation score of 0.611 ± 0.34.

Take DARLC: the amyloid nucleation score was -0.226 ± 1.

Substance LCVEVS gave an amyloid nucleation score of 0.369 ± 0.42.

As to EMRNLNLYVLAEPNGVGNSA, the amyloid nucleation score entry is “inactive”.

In turn, EFKTDPDYT yielded an amyloid nucleation score of 0.2 ± 0.53.

Regarding NVTIVGS, the amyloid nucleation score amounted to 1.02 ± 0.46.

Substance ELTGFFFCVRTSKCRIW returned an amyloid nucleation score of 0.533 ± 0.46.

In the case of FIEHQTRSFDKILSYAWLEA, the amyloid nucleation score was determined as 0.379 ± 0.61.
